From the DeepSol protein solubility set

Experiment: soluble on expression in E. coli; label from the status in PepcDB or PDB records

Q: Which “soluble on expression in E. coli” value does the source give for “MGSDKIHHHHHHMLTTVKEKIEALNSEVSYRVKLWQYAPNLPKVESRDRLIVDTLKSEGVYITTLQELGLPSTAQLLKASHTLLPGMGQGSYAESAQNPPEIYTVTHIPDFYNWGSESRLLNILENYIGLPVAYHGVQIRKDFVNANQFSTMLWHRDSEDRRIVKIIIYLSDVEEKHGPFEYVPASFTSIDSLNFYRLYYKIHKSGINDEALNKIVPKSAWKSCTGPAGSVIIADTQRLLHHGTVRTEERSTLFYAYTANPAKRPGLCTQYWDDTFPKPNYS” here?
A: not soluble

Q: With “MATVAFQTLGCKVNHYETEAIWQLFKGEGYEKVDFEQMADVYVINTCTVTNTGDKKSRQVIRRAIRKNPDAVICVTGCYAQTSPAEVMAIPGVDIVVGTQDRKKMLEYIEQYKKERQPINGVGNIMKSRVYEELDVPAFTDRTRASLKIQEGCNNFCTFCIIPWARGLMRSRDPKEVIKQAEQLVQAGYKEIVLTGIHTGGYGEDLKDYSLARLLEDLEQVNGLKRIRISSIEASQLTDEVIEVIDRSTKVVRHLHIPLQSGSDTVLKRMRRKYTMAFFAERLERLREALPGLAVTSDVIVGFPGETEAEFQETYDFIAKHKFSELHVFPYSKRTGTPAARMEDQVNEDVKNERVHRLIQLSDQLAKEYASQFEGEVLEMIPEERDKEEPNSGLYVGYTDNYLKVKIPATDEMIGKLVKVKITKAGYPYNEGEFVRVLDEEPQAVAHGLEHHHHHH” as the sequence, how does the “soluble on expression in E. coli” value read?
A: soluble

Q: For “MAHHHHHHMEFNRSQAAGNGKYVELFAQSYSGPVPKPLPPCTEPTPDEQYRQLMEEKKNEIGEREQRHAENTAGASGSNVDSSNVVGLFSNAATKLRNVAQQVTLKIERASTEVSSATGAAVRQVERQLNVDRFLSNFPELGAMGEILLADYACTAINGGQRVSGHMHITKNYLCFSAPGSSVINQLATAVLKESGVGSDNNPVLGIRQIIPLTEIACILLSVALETVDHRPPFFLPLPASYVRPTGLQIYTTKQQLFQFLAFESIAAKAGSVFTDAVKGLPIQRAYNYLDHAWRASTSVPLPGVNYAS”, which “soluble on expression in E. coli” value is on record?
A: not soluble

Q: For “MGSDKIHHHHHHMEFHEIDRMAKKLGADIFGVADLDLLREYETFPENLLDSFDFGISIGVKLPDPLFDMLPDSRNLYSRYYVVANDMLDRIAFEISRAIESEGYEALPIPASKVLSDLHWRSYVSHKAIARAAGVGWVGRNLLLITPQFGPRVRLASVLTDMPLKAGKPARNRCGVCRECIDSCITQALRYSEFDDYPERDEVFEVDKCAAKLKEFASNPDIGTMVCGICIKVCPWGKLGNKTKGN”, which “soluble on expression in E. coli” value is on record?
A: not soluble

Q: With “GPLGSHMASEFINQGDVTEGNNNQEEVYCFCRNVSYGPMVACDNPACPFEWFHYGCVGLKQAPKGKWYCSKDCKEIANQRSKSKRQKRRK” as the sequence, how does the “soluble on expression in E. coli” value read?
A: soluble

Q: With “MGSDKIHHHHHHMHSKTFGDVSIDEMVSRIKEFILKDNNCNYKITIGTDSQNKNLTKVVVVVAIHRIGSGGIFFYDIKHVHKISNVRQKIYYETALSLELASKVSHAFAEANIQEDIEIHADIGSNRKGKTYPLINEITGWITGEGYKYQIKPYSYAASCIADKISK” as the sequence, how does the “soluble on expression in E. coli” value read?
A: not soluble

Q: Which “soluble on expression in E. coli” value does the source give for “MGSDKIHHHHHHMIKVEDKSRCCGCEACVSSCPLQCIELVKDKEGFMYPQVDTARCIDCGKCEKACPELVEAKGSGGVTVYAAVNPDKEARLASSSGGIFTLLAESVLAENGVVFGARFDKDWNVIHDYTETKEGLEAFRGSKYVQSRTGETFKQAEQFLKEGRKVLFSGTPCQIMGLKRYLHKEYDNLLAVDFVCHGVPSPLVWRKYIEETLVRQDEKIQFRPTLNHLFLDEMPLIEGISFRNKCLGWKKYSFALILSKVTTAGEKNTVSLSRIFYDNAYMKAFLANLSLRPACYRCPAKSGKSGSDITLGDFWGIEKIAPELDDDRGCSLLIINNPKVRDELRKKGCLLAEFPISEILPYNLSTAYSVSMPNNRKFFWFMFDKAGFHKALMLATSTTFPIRALRKLFRLI” here?
A: not soluble
